Our source for the Kd and koff values is paper PMC9348789 (2022).

Assay [1] addresses T1, SARS-CoV-2 nucleocapsid protein (N) (SARS-CoV-2, UniProt P0DTC9 1-419). Description: BLI. For orientation: In BLI a coated tip is dipped into the sample, and binding shifts an interference pattern.
The target of assay [2] is T1, SARS-CoV-2 nucleocapsid protein (N). In words: BLI. This is another data set of the same source.

B1: CCL28 (ligand)
chain: SEAILPIASSCCTEVSHHISRRLLERVNMCRIQRADGDCDLAAVILHVKRRRICVSPHNHTVKQWMKVQAAKKNGKGNVCHRKKHHGKRNSNRAHQGKHETYGHKTPY
The term Kd denotes the constant that tells how readily two partners part at equilibrium. Higher therefore signals a looser complex. What is called koff is a measure of how fast the partners let go of each other. High values mean a short-lived complex, low ones a long-lived complex. As for B1, binding in assay [1] was put at a Kd of 22 nM. The koff in assay [2] was found to be 0.00087 s⁻¹.

B2: CCL26 (ligand)
chain: TRGSDISKTCCFQYSHKPLPWTWVRSYEFTSNSCSQRAVIFTTKRGKKVCTHPRKKWVQKYISLLKTPKQL
Molecule B2 registered a Kd in assay [1] of 26 nM. The koff in assay [2] stood at 0.00093 s⁻¹.

B3: CCL5 (ligand)
chain: SPYSSDTTPCCFAYIARPLPRAHIKEYFYTSGKCSNPAVVFVTRKNRQVCANPEKKWVREYINSLEMS
B3: binding in assay [1] was characterised by a dissociation constant (Kd) of 10 nM. Moreover, the koff in assay [2] was 0.00019 s⁻¹.

B4: CXCL9 (ligand)
chain: TPVVRKGRCSCISTNQGTIHLQSLKDLKQFAPSPSCEKIEIIATLKNGVQTCLNPDSADVKELIKKWEKQVSQKKKQKNGKKHQKKKVLKVRKSQRSRQKKTT
In assay [1], B4 returned an equilibrium dissociation constant (Kd) of 12 nM. This molecule also had a koff in assay [2] of 0.00085 s⁻¹.

B5: CXCL4 (ligand)
chain: EAEEDGDLQCLCVKTTSQVRPRHITSLEVIKAGPHCPTAQLIATLKNGRKICLDLQAPLYKKIIKKLLES
In turn, B5 registered a Kd in assay [1] of 170 nM. The molecule also yielded a koff in assay [2] of 0.00053 s⁻¹.

B6: CXCL14 (ligand)
chain: SKCKCSRKGPKIRYSDVKKLEMKPKYPHCEEKMVIITTKSVSRYRGQEHCLHPKLQSTKRFIKWYNAWNEKRRVYEE
In turn, B6 displayed a Kd in assay [1] of 45 nM. In assay [2], this molecule yielded a koff of 0.0019 s⁻¹.

B7: CCL21 (ligand)
chain: SDGGAQDCCLKYSQRKIPAKVVRSYRKQEPSLGCSIPAILFLPRKRSQAELCADPKELWVQQLMQHLDKTPSPQKPAQGCRKDRGASKTGKKGKGSKGCKRTERSQTPKGP
For B7, in assay [1], the Kd is 14 nM. This molecule came in with a koff in assay [2] of 0.0014 s⁻¹.

B8: CCL11 (ligand)
chain: not shown
Take B8: the Kd in assay [1] amounted to 72 nM. In assay [2], this molecule came in with a koff of 0.0045 s⁻¹.

B9: CXCL11 (ligand)
chain: FPMFKRGRCLCIGPGVKAVKVADIEKASIMYPSNNCDKIEVIITLKENKGQRCLNPKSKQARLIIKKVERKNF
Take B9: in assay [1], the Kd is 130 nM. In addition, in assay [2], the koff was found to be 0.0033 s⁻¹.
